Laboratory results as given in US20230399394A1 (SUNSHINE GUOJIAN PHARMACEUTICAL SHANGHAI, published 2023).
Numbering of substitutions follows the chain as printed.

Experiments:
[1] = target: T1, IL-33 mutant protein P59A (human, UniProt O95760 112-270); experiment: ELISA as Example 9; row P59A
T1 construct: Prokaryotic expression
T1 chain: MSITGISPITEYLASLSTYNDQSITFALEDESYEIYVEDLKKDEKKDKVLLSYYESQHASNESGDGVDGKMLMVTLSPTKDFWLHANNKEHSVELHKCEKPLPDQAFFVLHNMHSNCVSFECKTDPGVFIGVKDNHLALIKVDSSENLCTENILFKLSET
Experimental: (§1) SA protein was diluted to 2 μg/mL to coat ELISA plate at 100 μL/well overnight at 4° C. The plate was washed with PBST (PBS containing 0.05% Tween20) for 3 times, and blocked with 2% BSA prepared in PBS at 200 μL/well, at room temperature for 2 h. After the plate was washed twice with PBST, IL-33-his-biotin protein was diluted to 1 μg/mL with 1% BSA prepared in PBST, and was added to ELISA plate at 100 μL/well. The plate was incubated at room temperature for 1 h, and each monoclonal antibody was diluted with 1% BSA prepared in PBST in a 3-fold gradient. The highest concentration of antibody was 10 μg/mL, and the antibody was diluted for 12 gradients. Each diluted monoclonal antibody was added to ELISA wells with 100 μL/well, and the plate was incubated at room temperature for 1 h. Each sample was added to duplicate wells in parallel. The plate was washed with PBST for 3 times, and HRP-anti human IgG Fc secondary antibody prepared with PBST was diluted at an appropriate ratio, and was added to ELISA wells at 100 μL/well. […] Each reaction solution was shaken uniformly and OD450 nm was read on a microplate reader. The data was analyzed and EC₅₀ was calculated.
(§2) Subsequently, according to the experimental method of Example 9, the affinity of the above mutant proteins to 874F7-Hu1 was determined, and IL-33 proteins (WT-1, WT-2, WT-3, and WT-4) without any mutation were set as controls.

[2] = target: T2, IL-33 mutant protein E62A (human, UniProt O95760 112-270); experiment: ELISA as Example 9; row E62A against WT-3
T2 construct: Prokaryotic expression
T2 chain: T1 chain with A59P, E62A
Experimental: as §1, §2

[3] = target: T3, IL-33 mutant protein K45A (human, UniProt O95760 112-270); experiment: ELISA as Example 9; row K45A against WT-1
T3 construct: Prokaryotic expression
T3 chain: T1 chain with K45A, A59P
Experimental: as §1, §2

[4] = target: T4, IL-33 mutant protein K48A (human, UniProt O95760 112-270); experiment: ELISA as Example 9; row K48A against WT-2
T4 construct: Prokaryotic expression
T4 chain: T1 chain with K48A, A59P
Experimental: as §1, §2

[5] = target: T5, IL-33 mutant protein S52A (human, UniProt O95760 112-270); experiment: ELISA as Example 9; row S52A against WT-2
T5 construct: Prokaryotic expression
T5 chain: T1 chain with S52A, A59P
Experimental: as §1, §2

[6] = target: T6, Human IL-33-his (human, UniProt O95760 112-270, biotinylated with EZ-Link NHS-Biotin where used as IL-33-his-biotin); experiment: competition ELISA as Example 10, ST2-Fc on plate; competitor ST2-Fc
T6 construct: Used plain (SPR, cell assays) and biotinylated (ELISA); also called IL-33-his-biotin
T6 sequence: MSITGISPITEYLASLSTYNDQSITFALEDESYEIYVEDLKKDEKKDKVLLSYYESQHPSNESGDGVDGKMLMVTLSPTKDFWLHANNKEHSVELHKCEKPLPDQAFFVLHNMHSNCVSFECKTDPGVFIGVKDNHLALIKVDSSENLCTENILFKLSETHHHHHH
Experimental: ST2-Fc protein was diluted to 1 μg/mL with ELISA coating solution to coat ELISA plate with 100 μL/well. The plate was placed in a wet box at 4° C. for 16 h for coating. The ELISA plate was washed 3 times with PBST, and then was blocked with 2% BSA prepared in PBS at 200 μL/well at room temperature for 2 h. The plate was washed once with PBST, and was patted dry to remove the excess blocking solution. Each monoclonal antibody was diluted with 1% BSA prepared in PBST in a 3-fold gradient. The highest concentration of antibody was 10 μg/mL, and the antibody was diluted for 11 gradients. The diluted antibody was mixed 1:1 with 10 ng/ml IL-33-his-biotin, and then the mixture was added into the ELISA well at 100 μL/well. The plate was incubated at room temperature for 1 h. Each concentration was added to duplicate wells in parallel (maximum final concentration of antibody was […], final concentration of IL-33-his-biotin was 5 ng/mL). Unbound or non-specifically bound primary antibodies were washed out. According to the instructions of the antibody, HRP labeled streptavidin secondary antibody was diluted to an appropriate concentration with antibody diluent solution, then it was added to ELISA plate with 100 μL/well, and was incubated at room temperature for 1 h. The ELISA plate was washed with PBST for 5 times, and was patted dry on absorbent paper to remove excess liquid. TMB developing solution was added with 100 μL/well for development to an appropriate degree. 2M H₂SO₄ was added with 70 μL/well to terminate development, and the absorbance was measured at 450 nm on a multifunctional microplate reader. The data were analyzed.
The blocking effect of the above humanized antibodies on the binding of IL-33 to its receptor ST2 was determined by the ELISA method, and the relevant experimental methods were referred to Example 10.

EC50 [1]: 0.12 nM
Affinity decline ratio [2]: 0.8 fold
Affinity decline ratio [3]: > 25 fold
Affinity decline ratio [4]: 3.7 fold
Affinity decline ratio [5]: 14.6 fold
IC50 [6]: 0.451 nM
B1: 874F7-Hu1 (antibody, human IgG4 S228P, kappa)
heavy: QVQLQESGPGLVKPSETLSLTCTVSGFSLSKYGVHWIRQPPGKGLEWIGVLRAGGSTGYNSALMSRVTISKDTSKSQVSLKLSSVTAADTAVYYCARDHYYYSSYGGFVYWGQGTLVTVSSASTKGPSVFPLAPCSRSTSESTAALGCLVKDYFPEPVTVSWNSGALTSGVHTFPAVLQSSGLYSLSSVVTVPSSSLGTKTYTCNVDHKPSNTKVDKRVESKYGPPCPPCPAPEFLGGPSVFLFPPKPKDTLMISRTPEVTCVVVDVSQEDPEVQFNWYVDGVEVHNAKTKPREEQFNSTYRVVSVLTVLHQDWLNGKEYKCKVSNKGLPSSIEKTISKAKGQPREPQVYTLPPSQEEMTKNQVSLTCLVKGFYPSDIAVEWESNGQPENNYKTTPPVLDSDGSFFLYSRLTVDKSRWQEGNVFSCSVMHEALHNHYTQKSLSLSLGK
light: DIQMTQSPSSVSASVGDRVTITCLASQTIGAWLAWYQQKPGKSPKLLIYAATRLADGVPSRFSGSGSGTDFTLTISSLQPEDFATYYCQQLDSSPYTFGQGTKVEIKRTVAAPSVFIFPPSDEQLKSGTASVVCLLNNFYPREAKVQWKVDNALQSGNSQESVTEQDSKDSTYSLSSTLTLSKADYEKHKVYACEVTHQGLSSPVTKSFNRGEC
notes: also called 874F7-Hul; humanized antibody 874F7-Hu1
